From publication PMC13198613

Target: N1-MPP (recombinant neuraminidase: N1 globular head domain from A/Michigan/45/2015 (H1N1) fused to the measles virus phosphoprotein tetramerization domain, with hexahistidine tag) (measles virus | influenza A virus A/Michigan/45/2015 (H1N1))
Test: SEC; […], pH 7.5, 0.4 mL/min, room temperature; […]

N1-MPP (recombinant neuraminidase: N1 globular head domain from A/Michigan/45/2015 (H1N1) fused to the measles virus phosphoprotein tetramerization domain, with hexahistidine tag) (enzyme)
stoichiometry N: 4
